# Patent publication US20170313754A1 (PROTAGONIST THERAPEUTICS, published 2017)
# Bridge positions count the residues as written; N and C are the ends. Square brackets hold non-standard residues; d marks the D form. * marks the point of attachment. NMeW = CN[C@@H](Cc1c[nH]c2ccccc12)C(=O)O; Isovaleryl = CC(C)CC(=O)*; Sar = CNCC(=O)O
# B1: Isovaleric acid-DTHFPCIIF-[Sarc]-PRSKG-[N-MeTrp]-VC-NH2 (peptide)
# peptide: DTHFPCIIFXPRSKGWVC
# modifications: N-terminal isovaleric acid; Sarc at position 10; N-MeTrp at position 16; C-terminal amide
# B2: Hy-DTHFPCIIFGPRSKGWNCK-NH2 (peptide)
# peptide: H-DTHFPCIIFGPRSKGWNCK-NH2
# modifications: not fully specified (bridges); printed as Hy-DTHFPCIIFGPRSKGWNCK-NH2; cysteine pairing not given here
# B3: Hy-DTHFPCIIFGGPRSKGWNCK-NH2 (peptide)
# peptide: H-DTHFPCIIFGGPRSKGWNCK-NH2
# modifications: not fully specified (bridges); printed as Hy-DTHFPCIIFGGPRSKGWNCK-NH2; cysteine pairing not given here
# B4: Hy-DTHFPCIIFGPRSRGHVCK-NH2 (peptide)
# peptide: H-DTHFPCIIFGPRSRGHVCK-NH2
# modifications: not fully specified (bridges); printed as Hy-DTHFPCIIFGPRSRGHVCK-NH2; cysteine pairing not given here
# B5: Isovaleric acid-DTHFPCIIF-[Sarc]-PHSKG-[N-MeTrp]-VC-NH2 (peptide)
# peptide: DTHFPCIIFXPHSKGWVC
# modifications: N-terminal isovaleric acid; Sarc at position 10; N-MeTrp at position 16; C-terminal amide
# B6: Hy-DTHFPCIIFGPRSKGWAVCYW-NH2 (peptide)
# peptide: H-DTHFPCIIFGPRSKGWAVCYW-NH2
# modifications: not fully specified (bridges); printed as Hy-DTHFPCIIFGPRSKGWAVCYW-NH2; cysteine pairing not given here
# B7: Hy-DTHFPCIIFGGPRSRGWVCK-NH2 (peptide)
# peptide: H-DTHFPCIIFGGPRSRGWVCK-NH2
# modifications: not fully specified (bridges); printed as Hy-DTHFPCIIFGGPRSRGWVCK-NH2; cysteine pairing not given here
# B8: Hy-DTHFPCIIFGPRSKGWVAC-NH2 (peptide)
# peptide: H-DTHFPCIIFGPRSKGWVAC-NH2
# modifications: not fully specified (bridges); printed as Hy-DTHFPCIIFGPRSKGWVAC-NH2; cysteine pairing not given here
# B9: Hy-DTHFPCIIFGPRSKGWVACY-NH2 (peptide)
# peptide: H-DTHFPCIIFGPRSKGWVACY-NH2
# modifications: not fully specified (bridges); printed as Hy-DTHFPCIIFGPRSKGWVACY-NH2; cysteine pairing not given here
# Biological target: T1, human ferroportin (SLC40A1) fused in frame with GFP, stably expressed in HEK293 cells (human, UniProt Q9NP59 1-571)
# T1 sequence (looked up): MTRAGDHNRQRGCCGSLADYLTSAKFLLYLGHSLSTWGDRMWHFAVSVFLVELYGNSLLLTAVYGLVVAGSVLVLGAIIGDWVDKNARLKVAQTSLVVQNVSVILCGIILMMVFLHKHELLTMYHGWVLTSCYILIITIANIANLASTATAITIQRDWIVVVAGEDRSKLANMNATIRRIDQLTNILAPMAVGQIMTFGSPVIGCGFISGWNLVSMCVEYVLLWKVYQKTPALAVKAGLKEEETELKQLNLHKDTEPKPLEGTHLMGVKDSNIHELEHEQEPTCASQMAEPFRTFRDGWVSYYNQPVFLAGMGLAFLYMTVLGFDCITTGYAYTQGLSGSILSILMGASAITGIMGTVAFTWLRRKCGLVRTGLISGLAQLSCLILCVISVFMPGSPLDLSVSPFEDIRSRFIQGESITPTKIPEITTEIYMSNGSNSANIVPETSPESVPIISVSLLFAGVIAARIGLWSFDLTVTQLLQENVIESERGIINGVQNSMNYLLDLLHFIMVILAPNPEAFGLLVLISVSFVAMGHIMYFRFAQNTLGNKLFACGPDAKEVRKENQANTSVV
# Test: cell-based or functional assay
Binder,"Potency EC50 (nM), ferroportin-GFP internalization/degradation","Potency: percent at the stated concentration, ferroportin-GFP internalization/degradation"
B1,10 nM,–
H-DTHCPIAIF-NH2 [Hy-DTHCPIAIF-NH2],> 10000 nM,–
Isovaleryl-DTHFPCIKFEPRSKLWVCK-NH2 (disulfide 6-18 (inferred)) [Isovaleric acid-DTHFPCIKFEPRSKLWVCK-NH2],9 nM,–
Isovaleryl-DTHFECIIFGPRSKGWVCK-NH2 (not fully specified (bridges); cysteine pairing not given here) [Isovaleric acid-DTHFECIIFGPRSKGWVCK-NH2],> 1000 nM,–
H-ADHFPCIIF-NH2 [Hy-ADHFPCIIF-NH2],> 1000 nM,–
Isovaleryl-DTHFPCIKFKPHSKEWVCE-NH2 (disulfide 6-18 (inferred)) [Isovaleric acid-DTHFPCIKFKPHSKEWVCE-NH2],46 nM,–
B2,> 1000 nM,–
Isovaleryl-DTHFPCIFEPRSKGTCK-NH2 (disulfide 6-16 (inferred)) [Isovaleric acid-DTHFPCIFEPRSKGTCK-NH2],57 nM,–
H-DTHFP[dC]IIFGPRSKGWVA[dC]-NH2 (disulfide 6-19 (inferred)) [Hy-DTHFP-[(D)Cys]-IIFGPRSKGWVA-[(D)Cys]-NH2],> 10000 nM,–
H-DTHFPCIIY-NH2 [Hy-DTHFPCIIY-NH2],–,75 % at 10 uM
B3,404 nM,–
B4,> 1000 nM,–
Isovaleryl-DTHFPCIIFEPRSKFWVCK-NH2 (disulfide 6-18 (inferred)) [Isovaleric acid-DTHFPCIIFEPRSKFWVCK-NH2],10 nM,–
Isovaleryl-DTHFPCIKFEPRSKEWVCK-OH (not fully specified (bridges); cysteine pairing not given here) [Isovaleric acid-DTHFPCIKFEPRSKEWVCK-OH],46 nM,–
Isovaleryl-DTHFPCIIFGPRSKG[NMeW]VC-NH2 (disulfide 6-18 (inferred)) [Isovaleric acid-DTHFPCIIFGPRSKG-[N-MeTrp]-VC-NH2],32 nM,–
B5,9 nM,–
H-DTHFPIICI-NH2 [Hy-DTHFPIICI-NH2],> 10000 nM,–
B6,197 nM,–
H-DTHICIAIF-NH2 [Hy-DTHICIAIF-NH2],> 10000 nM,–
H-DTHFPCIEY-NH2 [Hy-DTHFPCIEY-NH2],–,8 % at 1 uM
H-DTHKPCIIF-NH2 [Hy-DTHKPCIIF-NH2],–,45 % at 10 uM

Binder,"Potency EC50 (nM), ferroportin-GFP internalization/degradation","Potency: percent at the stated concentration, ferroportin-GFP internalization/degradation"
B7,520 nM,–
H-DTHFPCIIFGGPRSKGWDCK-NH2 (disulfide 6-19 (inferred)) [Hy-DTHFPCIIFGGPRSKGWDCK-NH2],679 nM,–
Isovaleryl-DTHFPCIKFEPRSKEWVCK-NH2 (disulfide 6-18 (inferred)) [Isovaleric acid-DTHFPCIKFEPRSKEWVCK-NH2],20 nM,–
H-DTHFVCIIF-NH2 [Hy-DTHFVCIIF-NH2],–,50 % at 10 uM
B8,281 nM,–
H-DTHFPCIIFKC-NH2 (disulfide 6-11 (inferred)) [Hy-DTHFPCIIFKC-NH2],6400 nM,–
B9,> 10000 nM,–
H-ATHFPCIIF-NH2 [Hy-ATHFPCIIF-NH2],> 1000 nM,–
H-DTHFPICIFGPHRSKGWVCM-NH2 (disulfide 7-19 (inferred)) [Hy-DTHFPICIFGPHRSKGWVCM-NH2],149 nM,–
H-DTHFPCIIT-NH2 [Hy-DTHFPCIIT-NH2],–,23 % at 1 uM
H-DTHFPCIIFAC-NH2 (disulfide 6-11 (inferred)) [Hy-DTHFPCIIFAC-NH2],> 1000 nM,–
Isovaleryl-DTHFPCIIFEPRSKLWVCK-NH2 (disulfide 6-18 (inferred)) [Isovaleric acid-DTHFPCIIFEPRSKLWVCK-NH2],7 nM,–
Isovaleryl-DTHFPCIIFEPRSKEWVCK-NH2 (disulfide 6-18 (inferred)) [Isovaleric acid-DTHFPCIIFEPRSKEWVCK-NH2],19 nM,–
H-DPHFPCIIF-NH2 [Hy-DPHFPCIIF-NH2],–,64 % at 10 uM
H-DTHFPCILY-NH2 [Hy-DTHFPCILY-NH2],–,85 % at 1 uM
Isovaleryl-DTHFPCIIFEPRSKHWVCK-NH2 (disulfide 6-18 (inferred)) [Isovaleric acid-DTHFPCIIFEPRSKHWVCK-NH2],15 nM,–
H-DTHFPCINFGPRSKGWVCK-NH2 (disulfide 6-18 (inferred)) [Hy-DTHFPCINFGPRSKGWVCK-NH2],> 1000 nM,–
H-DTHFPCIIFAA-NH2 [Hy-DTHFPCIIFAA-NH2],–,59 % at 1 uM
Isovaleryl-DTHFPCIKFEPHSK[Sar]CK-NH2 (not fully specified (bridges); cysteine pairing not given here) [Isovaleric acid-DTHFPCIKFEPHSK-[Sarc]-CK-NH2],28 nM,–
H-DTHFPCIDFGPRSKGWVCK-NH2 (disulfide 6-18 (inferred)) [Hy-DTHFPCIDFGPRSKGWVCK-NH2],> 1000 nM,–
